In patent publication US5811533, “High-affinity oligonucleotide ligands to vascular endothelial growth factor (VEGF)” (NeXstar Pharmaceuticals, Inc.):

Legend:
[1] = target: T1, VEGF165 (recombinant human vascular endothelial growth factor, 165 aa form) (Homo sapiens, UniProt P15692-4 P15692-4:27-191); assay: filter; Kd1, X1 0.79, Kd2 ~100 nM; conditions: tags: gift from N. Ferrara, Genentech; chain copies: 2 (dimer, stated)
[2] = target: T1, VEGF165 (recombinant human vascular …); assay: filter; PBS, 0.01% HSA, 37 C; Kd1, X1 0.45, Kd2 21 nM; conditions: tags: gift from N. Ferrara, Genentech; chain copies: 2 (dimer, stated); label: 32P
Method: (§1) Internally-labeled RNA ligands used for binding studies were prepared by in vitro transcription using T7 RNA polymerase (Milligan et al. (1987) Nucl. Acids Res. 15:8783) and were purified on denaturing polyacrylamide gels to ensure size homogeneity. All RNA ligands were diluted to about 1 nM in PBS, denatured at 90° C. for 2 minutes, and then cooled on ice prior to incubation with the protein. This denaturation/renaturation cycle performed at high dilution is necessary to ensure that the RNA is essentially free from dimers and other higher order aggregates. Concentrations of the stock solutions of VEGF, from which other dilutions were made, were determined from the absorbance reading at 280 nm using the calculated value for ε280 of 46,600 M^-1cm^-1 for the VEGF dimer (Gill et al. (1989) Anal. Biochem. 182:319). Data sets that define the binding curves were fit to either eq. 2 or eq. 5 by the non-linear least squares method using the software package Kaleidagraph (Synergy Software, Reading, Pa.). […]

[3] = target: T1, VEGF165 (recombinant human vascular …); assay: filter; PBS, 0.01% HSA, 37 C; Kd1, X1 0.73, Kd2 82 nM; conditions: tags: gift from N. Ferrara, Genentech; chain copies: 2 (dimer, stated); label: 32P
Method: as §1

[4] = target: bFGF (UniProt P09038 P09038:143-288); assay: filter; specificity; conditions: label: 32P
Method: (§2) Dissociation constants were determined using the nitrocellulose filter partitioning technique.

[5] = target: antithrombin III (UniProt P01008 P01008:33-464); assay: filter; specificity; conditions: label: 32P
Method: as §2

[6] = target: T1, VEGF165 (recombinant human vascular …); assay: filter; PBS, 0.01% HSA, 37 C; monophasic; conditions: tags: gift from N. Ferrara, Genentech; chain copies: 2 (dimer, stated); label: 32P; bulged hairpin
Method: as §1

[7] = target: T1, VEGF165 (recombinant human vascular …); assay: filter; Kd1, X1 0.42, Kd2 ~100 nM; conditions: tags: gift from N. Ferrara, Genentech; chain copies: 2 (dimer, stated)
[8] = target: T1, VEGF165 (recombinant human vascular …); assay: filter; Kd1, X1 0.74, Kd2 ~100 nM; conditions: tags: gift from N. Ferrara, Genentech; chain copies: 2 (dimer, stated)
[9] = target: T1, VEGF165 (recombinant human vascular …); assay: filter; PBS, 0.01% HSA, 37 C; Kd1, X1 0.56, Kd2 21 nM; conditions: tags: gift from N. Ferrara, Genentech; chain copies: 2 (dimer, stated); label: 32P
Method: as §1

[10] = target: T1, VEGF165 (recombinant human vascular …); assay: filter; Kd1, X1 0.82, Kd2 10-100 nM; conditions: tags: gift from N. Ferrara, Genentech; chain copies: 2 (dimer, stated)
[11] = target: T1, VEGF165 (recombinant human vascular …); assay: filter; monophasic; conditions: tags: gift from N. Ferrara, Genentech; chain copies: 2 (dimer, stated)
[12] = target: T1, VEGF165 (recombinant human vascular …); assay: filter; PBS, 0.01% HSA, 37 C; Kd1, X1 0.53, Kd2 31 nM; conditions: tags: gift from N. Ferrara, Genentech; chain copies: 2 (dimer, stated); label: 32P; asymmetrical internal loop
Method: as §1

[13] = target: T1, VEGF165 (recombinant human vascular …); assay: filter; Kd1, X1 0.50, Kd2 15 nM; conditions: tags: gift from N. Ferrara, Genentech; chain copies: 2 (dimer, stated)
[14] = target: T1, VEGF165 (recombinant human vascular …); assay: filter; PBS, 0.01% HSA, 37 C; Kd1, X1 0.76, Kd2 180 nM; conditions: tags: gift from N. Ferrara, Genentech; chain copies: 2 (dimer, stated); label: 32P; bulged hairpin
Method: as §1

[15] = target: T1, VEGF165 (recombinant human vascular …); assay: filter; PBS, 0.01% HSA, 37 C; Kd1, X1 0.40, Kd2 11 nM; conditions: tags: gift from N. Ferrara, Genentech; chain copies: 2 (dimer, stated); label: 32P
Method: as §1

[16] = target: T1, VEGF165 (recombinant human vascular …); assay: filter; Kd1, X1 0.54, Kd2 9 nM; conditions: tags: gift from N. Ferrara, Genentech; chain copies: 2 (dimer, stated)
[17] = target: T1, VEGF165 (recombinant human vascular …); assay: filter; PBS, 0.01% HSA, 37 C; Kd1, X1 0.76, Kd2 182 nM; conditions: tags: gift from N. Ferrara, Genentech; chain copies: 2 (dimer, stated); label: 32P
Method: as §1

[18] = target: T1, VEGF165 (recombinant human vascular …); assay: filter; PBS, 0.01% HSA, 37 C; Kd1, X1 0.70, Kd2 38 nM; conditions: tags: gift from N. Ferrara, Genentech; chain copies: 2 (dimer, stated); label: 32P
Method: as §1

[19] = target: T1, VEGF165 (recombinant human vascular …); assay: filter; PBS, 0.01% HSA, 37 C; Kd1, X1 0.54, Kd2 181 nM; conditions: tags: gift from N. Ferrara, Genentech; chain copies: 2 (dimer, stated); label: 32P
Method: as §1

[20] = target: T1, VEGF165 (recombinant human vascular …); assay: filter; PBS, 0.01% HSA, 37 C; Kd1, X1 0.19, Kd2 10 nM; conditions: tags: gift from N. Ferrara, Genentech; chain copies: 2 (dimer, stated); label: 32P
Method: as §1

[21] = target: T1, VEGF165 (recombinant human vascular …); assay: filter; Kd1, X1 0.68, Kd2 ~100 nM; conditions: tags: gift from N. Ferrara, Genentech; chain copies: 2 (dimer, stated)
[22] = target: T1, VEGF165 (recombinant human vascular …); assay: inhibition; VEGF receptor binding; single value printed in Ki column; conditions: tags: gift from N. Ferrara, Genentech; chain copies: 2 (dimer, stated)
[23] = target: T1, VEGF165 (recombinant human vascular …); assay: filter; conditions: tags: gift from N. Ferrara, Genentech; chain copies: 2 (dimer, stated)
[24] = target: T1, VEGF165 (recombinant human vascular …); assay: inhibition; VEGF receptor binding; conditions: tags: gift from N. Ferrara, Genentech; chain copies: 2 (dimer, stated)
[25] = target: T1, VEGF165 (recombinant human vascular …); assay: filter; PBS, 0.01% HSA, 37 C; Kd1, X1 0.82, Kd2 42 nM; conditions: tags: gift from N. Ferrara, Genentech; chain copies: 2 (dimer, stated); label: 32P
Method: as §1

T1 sequence (P15692 other isoform, or with tags, fused parts or gaps): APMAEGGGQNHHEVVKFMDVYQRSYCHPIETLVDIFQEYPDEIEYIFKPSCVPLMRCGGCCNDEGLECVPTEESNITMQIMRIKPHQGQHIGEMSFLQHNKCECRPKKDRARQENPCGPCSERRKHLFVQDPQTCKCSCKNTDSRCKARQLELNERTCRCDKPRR
Chain of antithrombin III (P01008 33-464, one chain of several): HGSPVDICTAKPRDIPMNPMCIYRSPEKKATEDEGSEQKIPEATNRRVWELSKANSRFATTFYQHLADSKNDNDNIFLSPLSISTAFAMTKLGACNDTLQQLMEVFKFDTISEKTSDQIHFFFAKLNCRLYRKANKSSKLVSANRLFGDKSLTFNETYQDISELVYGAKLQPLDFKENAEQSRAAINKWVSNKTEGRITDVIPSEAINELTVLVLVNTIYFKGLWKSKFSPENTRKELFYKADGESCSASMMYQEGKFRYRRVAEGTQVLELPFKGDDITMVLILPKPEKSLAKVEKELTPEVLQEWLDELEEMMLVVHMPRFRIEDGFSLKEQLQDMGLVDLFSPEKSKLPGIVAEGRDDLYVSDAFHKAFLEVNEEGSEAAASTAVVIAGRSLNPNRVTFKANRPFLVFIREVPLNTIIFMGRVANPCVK
Chain of bFGF (P09038 143-288, one chain of several): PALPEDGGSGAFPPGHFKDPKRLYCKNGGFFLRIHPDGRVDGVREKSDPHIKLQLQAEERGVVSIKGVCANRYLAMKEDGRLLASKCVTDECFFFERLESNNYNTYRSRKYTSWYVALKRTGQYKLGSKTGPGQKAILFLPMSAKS

B1: 24A (ssRNA)
RNA: GGGAGACAAGAAUAACGCUCAACCCUGAUGGUAGACGCCGGGGUGCCGGAAUUCGACAGGAGGCUCACAACAGGC
modifications: 2'-NH2 pyrimidines
Question: Which Kd [1] does the source give for B1 here?
Answer: 0.71 nM

B2: ligand 84 (ssRNA)
RNA: GGGAGCUCAGAAUAAACGCUCAAUAGUUGGAGGCCUGUCCUCGCCGUAGAGCGUUCGACAUGAGGCCCGGAUCCGGC
Question: With B2 as the binder, how does the Kd [2] read?
Answer: 0.82 nM

Question: With GGAAGCUUGAUGGGUGACACACGUCAUGCCGAGCU (ssRNA) [ligand 44t] as the binder, how does the Kd [3] read?
Answer: 0.48 nM

Question: And the Kd [4]?
Answer: 600 nM

Question: What about the Kd [5] of the same binder?
Answer: 12000 nM

Question: Which Kd [6] does the source give for GGUCAACGGUUGAGUCUGUCCCGUUCGAC (ssRNA) [ligand 40t] here?
Answer: 20 nM

B3: 14A (ssRNA)
RNA: GGGAGACAAGAAUAACGCUCAAGCAACAGAGGCUGAUGGUAGACGCCGGCCAUUCGACAGGAGGCUCACAACAGGC
modifications: 2'-NH2 pyrimidines
Question: For B3, which Kd [7] is on record?
Answer: 0.7 nM

B4: 26B (ssRNA)
RNA: GGGAGGACGAUGCGGCACCUUCGUGGGGUCAAGGAGGGUCGCGAGGCCGCAGGAUCAACCGUGUGCAGACGACUCGCCCGA
modifications: 2'-NH2 pyrimidines
Question: With B4 as the binder, how does the Kd [8] read?
Answer: 0.37 nM

B5: ligand 12 (ssRNA)
RNA: GGGAGCUCAGAAUAAACGCUCAAGCAGACGAAGGGAACCUGCGUCUCGGCACCUUCGACAUGAGGCCCGGAUCCGGC
Question: Which Kd [9] does the source give for B5 here?
Answer: 0.48 nM

B6: 34B (ssRNA)
RNA: GGGAGGACGAUGCGGUGUGGUCAAUGUGGGGUAGGGCUGGUAGGGCAUUCCGUACUGGUGUGGUCAGACGACUCGCCCGA
modifications: 2'-NH2 pyrimidines
Question: With B6 as the binder, how does the Kd [10] read?
Answer: 0.068 nM

B7: 23A (ssRNA)
RNA: GGGAGACAAGAAUAACGCUCAAGAGGCUGAUGGCAGACGCGGCCGAAGACAUUCGACAGGAGGCUCACAACAGGC
modifications: 2'-NH2 pyrimidines
Question: B7 was tested. Which Kd [11] did it give?
Answer: 2.8 nM

Question: For GGCUCAAUAGUUGGAGGCCUGUCCUCGCCGUAGAGC (ssRNA) [ligand 84t], which Kd [12] is on record?
Answer: 1.8 nM

B8: 32B (ssRNA)
RNA: GGGAGGACGAUGCGGCAACAUUGGCACCAAUGCUCUGUGUUAAUGUGGGGUGGGAACGGCGCCGCAGACGACUCGCCCGA
modifications: 2'-NH2 pyrimidines
Question: With B8 as the binder, how does the Kd [13] read?
Answer: 0.05 nM

Question: GGAAGGGAACCUGCGUCUCGGCACCUUCG (ssRNA) [ligand 12t] was tested. Which Kd [14] did it give?
Answer: 1.1 nM

B9: ligand 126 (ssRNA)
RNA: GGGAGCUCAGAAUAAACGCUCAAACGGUUCUGUGUGUGGACUAGCCGCGGCCGUUCGACAUGAGGCCCGGAUCCGGC
Question: With B9 as the binder, how does the Kd [15] read?
Answer: 0.14 nM

B10: 44B (ssRNA)
RNA: GGGAGGACGAUGCGGAACCGAGUCGUGUGGGUUGGGGCUCCAGUACAUCCCCGGUCUGGGUGUCAGACGACUCGCCCGA
modifications: 2'-NH2 pyrimidines
Question: For B10, which Kd [16] is on record?
Answer: 0.14 nM

Question: GGCCGGUAGUCGCAUGGCCCAUCGCGCCCGG (ssRNA) [ligand 100t] was tested. Which Kd [17] did it give?
Answer: 0.42 nM

Question: And the Kd [4]?
Answer: 1000 nM

Question: And the Kd [5]?
Answer: 3000 nM

B11: ligand 44 (ssRNA)
RNA: GGGAGCUCAGAAUAAACGCUCAAGCUUGAUGGGUGACACACGUCAUGCCGAGCUUCGACAUGAGGCCCGGAUCCGGC
Question: For B11, which Kd [18] is on record?
Answer: 1.7 nM

Question: Which Kd [19] does the source give for GGAACGGUUCUGUGUGUGGACUAGCCGCGGCCGUU (ssRNA) [ligand 126t] here?
Answer: 1.4 nM

B12: ligand 40 (ssRNA)
RNA: GGGAGCUCAGAAUAAACGCUCAAGACCCAUCGUCAACGGUUGAGUCUGUCCCGUUCGACAUGAGGCCCGGAUCCGGC
Question: With B12 as the binder, how does the Kd [20] read?
Answer: 0.19 nM

B13: 41A (ssRNA)
RNA: GGGAGACAAGAAUAACGCUCAAAACGGAGUGGUAGGCGUUGGGUGCCAGGAAUUCGACAGGAGGCUCACAACAGGC
modifications: 2'-NH2 pyrimidines
Question: For B13, which Kd [21] is on record?
Answer: 0.86 nM

Question: How did the Ki [22] turn out when ACCCUGAUGGUAGACGCCGGGGUG (ssRNA, 2'-NH2 pyrimidines) [NX-107] was run?
Answer: 1 nM

Question: For CCCGTCTTCCAGACAAGAGTGCAGGG (ssDNA) [33t], which Kd [23] is on record?
Answer: 0.7 nM

Question: What about the Ki [24] of the same binder?
Answer: 3 nM

B14: ligand 100 (ssRNA)
RNA: GGGAGCUCAGAAUAAACGCUCAACCGGUAGUCGCAUGGCCCAUCGCGCCCGGUUCGACAUGAGGCCCGGAUCCGGC
Question: With B14 as the binder, how does the Kd [25] read?
Answer: 0.2 nM
